No end group written: not given here.

The values below come from doi:10.1101/2023.02.23.529712.

This test deals with recombinant rat arrestin-2 (rat), P29066. Description: MST + fluorescence polarisation. A general note: Fluorescence polarisation rises when a labelled molecule tumbles more slowly, as on binding a larger partner.
recombinant rat arrestin-2 (rat), P29066, sequence (P29066 whole entry): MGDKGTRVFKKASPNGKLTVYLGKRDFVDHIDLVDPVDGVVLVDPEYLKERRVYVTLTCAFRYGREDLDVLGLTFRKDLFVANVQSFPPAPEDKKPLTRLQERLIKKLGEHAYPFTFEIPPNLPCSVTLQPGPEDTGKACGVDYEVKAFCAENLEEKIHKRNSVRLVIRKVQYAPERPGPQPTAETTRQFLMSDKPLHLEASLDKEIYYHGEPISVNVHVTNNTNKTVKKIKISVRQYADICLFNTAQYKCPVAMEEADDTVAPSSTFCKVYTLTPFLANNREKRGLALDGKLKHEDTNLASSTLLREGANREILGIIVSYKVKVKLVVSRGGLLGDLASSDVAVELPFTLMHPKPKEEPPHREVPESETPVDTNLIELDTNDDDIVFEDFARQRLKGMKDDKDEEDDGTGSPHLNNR

As to GFEPFSQRKLEELKDESSRAWTEEEINE (domain or fragment, not fully specified) [phosphomimetic GHSR C-terminus, Q92847 339-366], the Kd (in general, the equilibrium constant for the complex coming apart) amounted to 200 µM.
